The values that follow come from article PMC2778355 (Biochemistry, 2009).

The target in data set [1] is Escherichia coli FtsZ (E. coli) (UniProt P0A9A6). The data set can be described thus: co-sedimentation.
For the next data set, the target named is ZapA (Escherichia coli) (UniProt P0ADS2). The note with it: cited from earlier work.
In data set [2] the target is His-ZapA (E. coli) (UniProt P0ADS2). The data set can be described thus: AUC.
The target is the same in data set [3]. As to the kind of experiment: composition-gradient static light scattering.
Data set [4] concerns the molecule itself. As to the kind of experiment: negative-stain electron microscopy.

Turning to “ZapA (His tag removed by enterokinase digestion of His-ZapA) (from UniProt P0ADS2 1-109) (natural protein)”, the stoichiometry N in data set [1] was found to be 1.

For the molecule ZapA (from UniProt P0ADS2), in the data set with ZapA (Escherichia coli), the Kd was 320 nM.

Consider “His-ZapA (from UniProt P0ADS2 1-109) (natural protein)”, for which the stoichiometry N with His-ZapA (E. coli) [2] and with His-ZapA (E. coli) [3] was 4 in each case.

B1: Escherichia coli FtsZ (natural protein)
chain: MFEPMELTNDAVIKVIGVGGGGGNAVEHMVRERIEGVEFFAVNTDAQALRKTAVGQTIQIGSGITKGLGAGANPEVGRNAADEDRDALRAALEGADMVFIAAGMGGGTGTGAAPVVAEVAKDLGILTVAVVTKPFNFEGKKRMAFAEQGITELSKHVDSLITIPNDKLLKVLGRGISLLDAFGAANDVLKGAVQGIAELITRPGLMNVDFADVRTVMSEMGYAMMGSGVASGEDRAEEAAEMAISSPLLEDIDLSGARGVLVNITAGFDLRLDEFETVGNTIRAFASDNATVVIGTSLDPDMNDELRVTVVATGIGMDKRPEITLVTNKQVQQPVMDRYQQHGMAPLTQEQKPVAKVVNDNAPQTAKEPDYLDIPAFLRKQAD
Regarding B1, the binding result in data set [4] is recorded as “binds”.
